Laboratory results as given in PMC2121028 (The Journal of Cell Biology, 1996).

B1: epsilon-COP, GAL4 fusion (natural protein)
chain: not shown
B2: alpha-COP, the 135-kD subunit of coatomer (bovine), GAL4 fusion (natural protein, UniProt Q27954 1-1224, looked up)
chain: MLTKFETKSARVKGLSFHPKRPWILTSLHNGVIQLWDYRMCTLIDKFDEHDGPVRGIDFHKQQPLFVSGGDDYKIKVWNYKLRRCLFTLLGHLDYIRTTFFHHEYPWILSASDDQTIRVWNWQSRTCVCVLTGHNHYVMCAQFHPSEDLVVSASLDQTVRVWDISGLRKKNLSPGAVESDVRGITGVDLFGTTDAVVKHVLEGHDRGVNWAAFHPTMPLIVSGADDRQVKIWRMNESKAWEVDTCRGHYNNVSCAVFHPRQELILSNSEDKSIRVWDMSKRTGVQTFRRDHDRFWVLAAHPNLNLFAAGHDGGMIVFKLERERPAYAVHGNMLHYVKDRFLRQLDFNSSKDVAVMQLRSGSKFPVFSMSYNPAENAVLLCTRASNLENSTYDLYTIPKDADTQNPDAPEGKRSSGLTAVWVARNRFAVLDRMHSLLIKNLKNEITKKVQVPNCDEIFYAGTGNLLLRDAESITLFDVQQKRTLASVKISKVKYVIWSADMSHVALLAKHAIVICNRKLEALCNIHENIRVKSGAWDESGVFIYTTSNHIKYAVTTGDYGIIRTLDLPIYVTRVKGNNVYCLDRECRPRVLTIDPTEFKFKLALINRKYDEVLHMVRNAKLVGQSIIAYLQKKGYPEVALHFVKDEKTRFSLALECGNIEIALEAAKALDDKNCWEKLGEVALLQGNHQIVEMCYQRTKNFDKLSFLYLITGNLEKLRKMMKIAEIRKDMSGHYQNALYLGDVSERVRILKNCGQKSLAYLTAATHGLDEEAESLKETFDPEKETIPDIDPNAKLLQPPAPIMPLDTNWPLLTVSKGFFEGSIASKGKGGALAADIDIDTVGTEGWGEDAELQLDEDGFVEATEGLGDDALGKGQEEGGGWDVEEDLELPPELDIPPGAAGGAEDGFFVPPTKGTSPTQIWCNNSQLPVDHILAGSFETAMRLLHDQVGVTQFGPYKQLFLQTYARGRTTYQALPCLPSMYGYPNRNWKDAGLKNGVPAVGLKLNDLIQRLQLCYQLTTVGKFEEAVEKFRSILLSVPLLVVDNKQEIAEAQQLITICREYIVGLSMETERKKLPKETLEQQKRICEMAAYFTHSNLQPVHMILVLRTALNLFFKLKNFRTAAAFARRLLELGPKPEVAQQTRKILSACEKNPTDAYQLNYDMHNPFDICAASYRPIYRGKPVEKCPLSGACYSPEFKGQICKVTTVTEIGKDVIGLRISPLQFR
B3: beta'-COP, GAL4 fusion (natural protein, bovine, UniProt P35605 1-906, looked up)
chain: MPLRLDIKRKLTARSDRVKSVDLHPTEPWMLASLYNGSVCVWNHETQTLVKTFEVCDLPVRAAKFVARKNWVVTGADDMQIRVFNYNTLERVHMFEAHSDYIRCIAVHPTQPFILTSSDDMLIKLWDWDKKWSCSQVFEGHTHYVMQIVINPKDNNQFASASLDRTIKVWQLGSSSPNFTLEGHEKGVNCIDYYSGGDKPYLISGADDRLVKIWDYQNKTCVQTLEGHAQNVSCASFHPELPIIITGSEDGTVRIWHSSTYRLESTLNYGMERVWCVASLRGSNNVALGYDEGSIIVKLGREEPAMSMDANGKIIWAKHSEVQQANLKAMGDAEIKDGERLPLAVKDMGSCEIYPQTIQHNPNGRFVVVCGDGEYIIYTAMALRNKSFGSAQEFAWAHDSSEYAIRESNSVVKIFKNFKEKKSFKPDFGAESIYGGFLLGVRSVNGLAFYDWENTELIRRIEIQPKHIFWSDSGELVCIATEESFFILKYLSEKVLAAQETHEGVTEDGIEDGFEVLGEIQEIVKTGLWVGDCFIYTSSVNRLNYYVGGEIVTIAHLDRTMYLLGYIPKDNRLYLGDKELNIVSYSLLVSVLEYQTAVMRRDFSMADKVLPTIPKEQRTRVAHFLEKQGFKQQALTVSTDPEHRFELALQLGELKIAYQLAVEAESEQKWKQLAELAISKCQFGLAQECLHHAQDYGGLLLLATASGNASMVNKLAEGAERDGKNNVAFMSYFLQGKLDACLELLIRTGRLPEAAFLARTYLPSQVSRVVKLWRENLSKVNQKAAESLADPTEYENLFPGLKEAFVVEEWVKETHADLWPAKQYPLVTPNEERNVMEEAKGFQPSRSAAQQELDGKPASPTPVIVTSQTANKEEKSLLELEVDLDNLEIEDIDTTDINLDEDILDD

Tests used:
[1] = target: B2; experiment: two-hybrid
epsilon-COP, GAL4 fusion = target: B1; experiment: two-hybrid
Chain of epsilon-COP, GAL4 fusion (Q28104 whole entry, the tested form may be a part): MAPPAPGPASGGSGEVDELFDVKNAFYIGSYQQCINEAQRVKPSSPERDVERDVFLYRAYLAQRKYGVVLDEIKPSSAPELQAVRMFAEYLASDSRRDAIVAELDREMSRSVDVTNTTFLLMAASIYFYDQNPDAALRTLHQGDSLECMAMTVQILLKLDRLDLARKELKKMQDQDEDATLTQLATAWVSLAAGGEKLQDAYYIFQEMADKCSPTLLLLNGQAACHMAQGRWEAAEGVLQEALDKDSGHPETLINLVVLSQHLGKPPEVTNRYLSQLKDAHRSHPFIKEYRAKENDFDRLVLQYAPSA

| generations/day in -His + 25 mM AT [1] [generations/day] | generations/day in -His + 25 mM AT (epsilon-COP, GAL4 fusion) [generations/day] | Binder |
| --- | --- | --- |
| 5.2 | – | B1 |
| – | 2.8 | B2 |
| 2.11 | – | B3 |
